pEC50: −log10 of the molar value. Where two headings read alike, the source gives them in different places. Numbered stars: 1 amine (or outer) side, 2 acyl side, 3 side chain; on linkers, the order of the positions; unused ones are H or OH. Bridge positions count the residues as written; N and C are the ends. Square brackets hold non-standard residues; d marks the D form. Side chains are listed from the residue outwards. Ends that are not written are not given here. * marks the point of attachment. PEG 40 kDa = PEG of 40 kDa covalently attached to Cys; γGlu = O=C(O)[C@H](CCC(=O)[*:2])N[*:1]; C16 acyl = 16 carbon fatty acyl group; PEG40kDa = 40 kDa polyethylene glycol; Palmitoyl = CCCCCCCCCCCCCCCC(=O)*; Myristoyl = CCCCCCCCCCCCCC(=O)*; Ac‑Cys = acetylated cysteine; Aib = CC(C)(N)C(=O)O
Experiments:
Format in all cases: cell-based
[1] = target: T1, GIP receptor (Homo sapiens, UniProt P48546); test: cAMP induction at the GIP receptor (agonist activity), luciferase reporter assay in HEK293 cells; settings: for pEC50: read-out: GIPR EC50; for GIPR relative activity: relative to standard
T1 construct: expressed in transfected cells; host or cells: HEK293
T1 sequence (P48546 22-466): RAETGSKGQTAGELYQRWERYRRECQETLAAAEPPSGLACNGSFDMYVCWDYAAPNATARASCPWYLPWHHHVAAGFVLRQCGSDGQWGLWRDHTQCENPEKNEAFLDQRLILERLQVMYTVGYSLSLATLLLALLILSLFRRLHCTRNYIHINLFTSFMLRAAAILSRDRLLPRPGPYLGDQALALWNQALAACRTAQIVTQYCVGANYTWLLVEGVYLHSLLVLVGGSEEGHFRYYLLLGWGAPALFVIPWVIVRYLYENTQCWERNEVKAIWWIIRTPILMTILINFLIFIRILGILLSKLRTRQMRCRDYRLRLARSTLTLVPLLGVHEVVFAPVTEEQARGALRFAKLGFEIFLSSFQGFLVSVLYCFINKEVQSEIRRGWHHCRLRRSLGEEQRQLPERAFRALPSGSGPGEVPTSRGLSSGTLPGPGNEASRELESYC
From the text: (§1) HEK293 cells co-transfected with the receptor and luciferase gene linked to a cAMP responsive element were employed for the bioassay.
(§2) All EC50s and IC50s are reported in the following examples in nM, unless indicated otherwise.

[2] = target: T2, GLP-1 receptor (Homo sapiens, UniProt P43220); test: cAMP induction at the GLP-1 receptor (agonist activity), firefly luciferase reporter assay in HEK293 cells; settings: for pEC50: read-out: GLP-1R EC50; for GLP-1R relative activity: relative to standard
T2 construct: expressed in transfected cells; host or cells: HEK293
T2 sequence (P43220 24-463): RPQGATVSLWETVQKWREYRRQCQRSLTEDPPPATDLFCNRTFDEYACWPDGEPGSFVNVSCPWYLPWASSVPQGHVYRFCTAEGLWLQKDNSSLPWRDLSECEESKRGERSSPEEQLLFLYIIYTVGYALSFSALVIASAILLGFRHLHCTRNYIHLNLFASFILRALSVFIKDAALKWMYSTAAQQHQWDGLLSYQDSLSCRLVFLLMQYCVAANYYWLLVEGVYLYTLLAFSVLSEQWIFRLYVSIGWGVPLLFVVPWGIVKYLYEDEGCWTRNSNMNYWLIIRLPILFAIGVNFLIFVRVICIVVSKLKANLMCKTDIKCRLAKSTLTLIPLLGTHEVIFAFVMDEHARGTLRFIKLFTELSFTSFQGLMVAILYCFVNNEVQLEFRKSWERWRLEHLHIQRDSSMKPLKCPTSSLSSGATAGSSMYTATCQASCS
From the text: as §1, §2

[3] = target: glucagon receptor (Homo sapiens, UniProt P47871); test: cAMP induction at the glucagon receptor (agonist activity), luciferase reporter assay in HEK293 cells; design: expressed in transfected cells; host or cells: HEK293; settings: for pEC50: read-out: GR EC50; for GR relative activity: relative to standard
Chain of glucagon receptor (P47871 26-477): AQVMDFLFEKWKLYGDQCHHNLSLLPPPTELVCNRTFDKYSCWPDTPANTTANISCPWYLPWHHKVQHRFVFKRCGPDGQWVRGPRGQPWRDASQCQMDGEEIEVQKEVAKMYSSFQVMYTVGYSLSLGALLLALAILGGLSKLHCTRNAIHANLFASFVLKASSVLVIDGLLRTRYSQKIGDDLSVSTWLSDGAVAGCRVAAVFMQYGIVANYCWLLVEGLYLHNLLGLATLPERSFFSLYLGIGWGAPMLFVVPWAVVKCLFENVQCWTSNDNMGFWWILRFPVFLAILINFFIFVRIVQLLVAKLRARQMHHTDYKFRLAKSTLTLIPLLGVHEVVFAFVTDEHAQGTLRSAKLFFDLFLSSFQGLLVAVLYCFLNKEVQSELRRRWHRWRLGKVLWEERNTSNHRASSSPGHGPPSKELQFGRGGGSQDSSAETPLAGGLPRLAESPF
From the text: as §1, §2

[4] = Table 7, relative to the native ligand of the receptor
[5] = Table 6, relative to the native ligand at the receptor

Row | Molecule | % Relative Activity at GIPR ([1]; Table 9) [%] | % Relative Activity GLP-1R ([2]; Table 9) [%] | % Relative Activity at GR ([3]; Table 9) [%] | GIPR relative activity ([1]; Table 5) [%] | GLP-1R relative activity ([2]; Table 5) [%] | pEC50 ([3]; Table 5) | GR relative activity ([3]; Table 5) [%] | also measured
1 | E3C24-PEG-K10-C14 (Y[Aib]EGTFTSDK(Myristoyl)SIYLDKQAA[Aib]EFVC(PEG 40 kDa)WLLAGGPSSGAPPPS-NH2) [MT-341] | 27.4 | 14.6 | 0.01 | – | – | – | – | –
2 | E3C24-PEG-K40-C14 (Y[Aib]EGTFTSDYSIYLDKQAA[Aib]EFVC(PEG 40 kDa)WLLAGGPSSGAPPPSK(Myristoyl)-NH2) [MT-353] | 102.9 | 128.6 | 0.17 | – | – | – | – | –
3 | Q3K16AIB20K10(rErE-C16) (Y[Aib]QGTFTSDK([γGlu-γGlu-C16 acyl])SIYLDKQAA[Aib]EFVNWLLAGGPSSGAPPPS-NH2) [MT-384] | – | – | – | – | – | – | – | % Relative Activity at GIPR [1, 4]: 808%; % Relative Activity GLP-1R [2, 4]: 349%; % Relative Activity at GR [3, 4]: 228%
4 | CC[C@H](C)[C@H](NC(=O)[C@H](CO)NC(=O)[C@H](Cc1ccc(O)cc1)NC(=O)[C@H](CC(=O)O)NC(=O)[C@H](CO)NC(=O)[C@@H](NC(=O)[C@H](Cc1ccccc1)NC(=O)[C@@H](NC(=O)CNC(=O)[C@H](CCC(=O)O)NC(=O)C(C)(C)NC(=O)[C@@H](N)Cc1ccc(O)cc1)[C@@H](C)O)[C@@H](C)O)C(=O)N[C@@H](Cc1ccc(O)cc1)C(=O)N[C@@H](CC(C)C)C(=O)N[C@@H](CC(=O)O)C(=O)N[C@@H](CCCCN)C(=O)N[C@@H](CCC(N)=O)C(=O)N[C@@H](C)C(=O)N[C@@H](C)C(=O)NC(C)(C)C(=O)N[C@@H](CCC(=O)O)C(=O)N[C@@H](Cc1ccccc1)C(=O)N[C@H](C(=O)N[C@@H](CC(N)=O)C(=O)N[C@@H](Cc1c[nH]c2ccccc12)C(=O)N[C@@H](CC(C)C)C(=O)N[C@@H](CC(C)C)C(=O)N[C@@H](C)C(=O)NCC(=O)NCC(=O)N1CCC[C@H]1C(=O)N[C@@H](CO)C(=O)N[C@@H](CO)C(=O)NCC(=O)N[C@@H](C)C(=O)N1CCC[C@H]1C(=O)N1CCC[C@H]1C(=O)N1CCC[C@H]1C(=O)N[C@@H](CO)C(N)=O)C(C)C [mt-395] | – | – | – | – | – | – | – | pEC50 ([1]; Table 4): 11.60; GIPR relative activity ([1]; Table 4): 537.45%; pEC50 ([2]; Table 4): 11.12; GLP-1R relative activity ([2]; Table 4): 321.55%; pEC50 ([3]; Table 4): 8.47; GR relative activity ([3]; Table 4): 0.87%
5 | mt-228: as mt-220 but modified Lys at position 40 and Asn at position 24; SEQ ID NO: 24 (Y[Aib]QGTFTSDYSIYLDEQAAKEFVNWLLAGGPSSGAPPPSK([Phe-Ac‑Cys-PEG40kDa])-NH2; lactam 16-20) | – | – | – | 0.75 | 19.86 | 8.27 | 1.01 | –
6 | mt-227: as mt-219 but modified Lys at position 40 and Asn at position 24; SEQ ID NO: 360 (Y[Aib]QGTFTSDYSIYLDEQAAKEFVNWLLAGGPSSGAPPPSK([Arg-Ac‑Cys-PEG40kDa])-NH2; lactam 16-20) | – | – | – | 1.29 | 36.25 | 8.37 | 1.27 | –
7 | Chimera2-CEXK40(C16) (H[Aib]QGTFTSDYSKYLDEQAAKEFIAWLMNGGPSSGAPPPSK(Palmitoyl)-NH2) [MT-364] | – | – | – | – | – | – | – | % Relative Activity at GIPR [1, 4]: 16%; % Relative Activity GLP-1R [2, 4]: 355%; % Relative Activity at GR [3, 4]: 350%
8 | mt-220: as mt-217 with Phe as the amino acid spacer; SEQ ID NO: 22 (Y[Aib]QGTFTSDYSIYLDEQAAKEFVK([Phe-Ac‑Cys-PEG40kDa])FLLAGGPSSGAPPPS-NH2; lactam 16-20) | – | – | – | 0.19 | 13.89 | 8.01 | 1.18 | –
9 | mt-218: as mt-217 with Glu as the amino acid spacer; SEQ ID NO: 20 (Y[Aib]QGTFTSDYSIYLDEQAAKEFVK([Glu-Ac‑Cys-PEG40kDa])FLLAGGPSSGAPPPS-NH2; lactam 16-20) | – | – | – | 0.13 | 7.40 | 7.79 | 0.70 | –
10 | E3K16AIB2,20K10(C16) (Y[Aib]EGTFTSDK(C16 acyl)SIYLDKQAA[Aib]EFVNWLLAGGPSSGAPPPS-NH2) [MT-270] | 163.3 | 211.8 | 0.06 | – | – | – | – | % Relative Activity at GIPR [1, 5]: 163%; % Relative Activity GLP-1R [2, 5]: 212%; % Relative Activity at GR [3, 5]: 0.1%
11 | Y1Aib2I7I12K16Q17A18Aib20E21N24-LAG27-29-CEX-K (YXQGTFISDYSIYLDKQAAXEFVNWLLAGGPSSGAPPPSK; HELM PEPTIDE1{Y.[Aib].Q.G.T.F.I.S.D.Y.S.I.Y.L.D.K.Q.A.A.[Aib].E.F.V.N.W.L.L.A.G.G.P.S.S.G.A.P.P.P.S.K.[am]}$$$$V2.0; N-terminus assumed; SMILES CC[C@H](C)[C@H](NC(=O)[C@H](CO)NC(=O)[C@H](Cc1ccc(O)cc1)NC(=O)[C@H](CC(=O)O)NC(=O)[C@H](CO)NC(=O)[C@@H](NC(=O)[C@H](Cc1ccccc1)NC(=O)[C@@H](NC(=O)CNC(=O)[C@H](CCC(N)=O)NC(=O)C(C)(C)NC(=O)[C@@H](N)Cc1ccc(O)cc1)[C@@H](C)O)[C@@H](C)CC)C(=O)N[C@@H](Cc1ccc(O)cc1)C(=O)N[C@@H](CC(C)C)C(=O)N[C@@H](CC(=O)O)C(=O)N[C@@H](CCCCN)C(=O)N[C@@H](CCC(N)=O)C(=O)N[C@@H](C)C(=O)N[C@@H](C)C(=O)NC(C)(C)C(=O)N[C@@H](CCC(=O)O)C(=O)N[C@@H](Cc1ccccc1)C(=O)N[C@H](C(=O)N[C@@H](CC(N)=O)C(=O)N[C@@H](Cc1c[nH]c2ccccc12)C(=O)N[C@@H](CC(C)C)C(=O)N[C@@H](CC(C)C)C(=O)N[C@@H](C)C(=O)NCC(=O)NCC(=O)N1CCC[C@H]1C(=O)N[C@@H](CO)C(=O)N[C@@H](CO)C(=O)NCC(=O)N[C@@H](C)C(=O)N1CCC[C@H]1C(=O)N1CCC[C@H]1C(=O)N1CCC[C@H]1C(=O)N[C@@H](CO)C(=O)N[C@@H](CCCCN)C(N)=O)C(C)C) [MT-357] | – | – | – | – | – | – | – | % Relative Activity at GIPR ([1]; Table 8): 198%; % Relative Activity GLP-1R ([2]; Table 8): 0.81%; % Relative Activity at GR ([3]; Table 8): 170%
12 | CC[C@H](C)[C@H](NC(=O)[C@H](CO)NC(=O)[C@H](Cc1ccc(O)cc1)NC(=O)[C@H](CC(=O)O)NC(=O)[C@H](CO)NC(=O)[C@@H](NC(=O)[C@H](Cc1ccccc1)NC(=O)[C@@H](NC(=O)CNC(=O)[C@H](CCC(=O)O)NC(=O)C(C)(C)NC(=O)[C@@H](N)Cc1ccc(O)cc1)[C@@H](C)O)[C@@H](C)O)C(=O)N[C@@H](Cc1ccc(O)cc1)C(=O)N[C@@H](CC(C)C)C(=O)N[C@@H](CC(=O)O)C(=O)N[C@@H](CCCCN)C(=O)N[C@@H](CCC(N)=O)C(=O)N[C@@H](C)C(=O)N[C@@H](C)C(=O)NC(C)(C)C(=O)N[C@@H](CCC(=O)O)C(=O)N[C@@H](Cc1ccccc1)C(=O)N[C@H](C(=O)N[C@@H](CC(N)=O)C(=O)N[C@@H](Cc1c[nH]c2ccccc12)C(=O)N[C@@H](CC(C)C)C(=O)N[C@@H](CC(C)C)C(=O)N[C@@H](C)C(=O)NCC(=O)NCC(=O)N1CCC[C@H]1C(=O)N[C@@H](CO)C(=O)N[C@@H](CO)C(=O)NCC(=O)N[C@@H](C)C(=O)N1CCC[C@H]1C(=O)N1CCC[C@H]1C(=O)N1CCC[C@H]1C(=O)N[C@@H](CO)C(=O)N[C@@H](CCC(=O)O)C(N)=O)C(C)C [mt-396] | – | – | – | – | – | – | – | pEC50 ([1]; Table 4): 11.47; GIPR relative activity ([1]; Table 4): 402.69%; pEC50 ([2]; Table 4): 11.03; GLP-1R relative activity ([2]; Table 4): 262.27%; pEC50 ([3]; Table 4): 8.54; GR relative activity ([3]; Table 4): 1.03%
13 | K40-C16 (Y[Aib]QGTFTSDYSIYLDKQAA[Aib]EFVNWLLAGGPSSGAPPPSK(C16 acyl)-NH2) [MT-278] | 846.4 | 459.5 | 588.4 | – | – | – | – | –

From patent US20140107021A1 (priority 2010, published 2014)
